From the supplement of paper PMC10724198
± gives the standard deviation of the averaged measurements.

Tested on: Saccharomyces cerevisiae
Assay: protein stability index of tFT-peptide fusion (C-terminal peptide) (PSI (0-1 scale)); higher = more stable (slower turnover)
Settings: genetic background: wild type; temperature: 30 C
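Note: PSI is a weighted mean of sequencing reads over stability bins, variants kept only with over 10 reads, mCherry proximal and sfGFP distal, peptide attached via GGGS linker.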

WGGLGRVWVKLG gave a protein stability index of 0.706 ± 0.038.

In the case of SGDCRLPLPRSP, the protein stability index is reported as 0.711 ± 0.022.

Sequence MLGGGGGVRVLG has a protein stability index of 0.706 ± 0.011.

PCGGGGRECVRG showed a protein stability index of 0.808 ± 0.1.

PPSRNPPDLDTQ showed a protein stability index of 0.682 ± 0.14.

GGGLGWVWVKLG showed a protein stability index of 0.735 ± 0.073.

In the case of SVLRWAVLGQTR, the protein stability index is reported as 0.728 ± 0.18.

VLTWGLLGRSAF showed a protein stability index of 0.729 ± 0.063.

RWVNNKKTKGQD showed a protein stability index of 0.767 ± 0.042.

Work on SPRLPPPRPLPS yielded a protein stability index of 0.676 ± 0.057.

Sequence VPPPPPSRSRPV has a protein stability index of 0.713 ± 0.032.

PSPGPPLPPPLF showed a protein stability index of 0.7625 ± 0.0075.

Sequence SSRAPSLPPPPP has a protein stability index of 0.674 ± 0.025.

In the case of LPPHPPPCPPLL, the protein stability index is reported as 0.733 ± 0.088.

GVSLFFITQFET showed a protein stability index of 0.712 ± 0.012.

For TSCPPAHLPPPP, the protein stability index was 0.659 ± 0.046.

For PSPPPFPPIPFC, the protein stability index was 0.708 ± 0.048.

Sequence WEVLGGFVWASC has a protein stability index of 0.6828 ± 0.0045.

PRSAPPPPNSLF gave a protein stability index of 0.656 ± 0.035.

YSGYRASLVFEI gave a protein stability index of 0.648 ± 0.099.

VLLEGCQSYVIW showed a protein stability index of 0.652 ± 0.03.

With PSRRPAVLPPLI the protein stability index was 0.6719 ± 0.0015.

VFGRHSNRSPLY gave a protein stability index of 0.808 ± 0.07.

With DCCTGGKCLEVW the protein stability index was 0.603 ± 0.047.

NKNNITKKRKKD gave a protein stability index of 0.749 ± 0.064.

For FSLPFLFCRPLS, the protein stability index was 0.6279 ± 0.0042.

With VGSGEVFEVMEG the protein stability index was 0.64 ± 0.036.

Sequence KKKKKKNKKKTQ has a protein stability index of 0.734 ± 0.04.

RASRGLGWRRND gave a protein stability index of 0.66 ± 0.015.

For SFGACSTSERIN, the protein stability index was 0.666 ± 0.07.

For SSGNSVDCFGHQ, the protein stability index was 0.6959 ± 0.0057.

Sequence IGTRHIKILGRY has a protein stability index of 0.698 ± 0.047.

SHWCLQTQAACK was tested, and the protein stability index was 0.65529 ± 0.00032.

In the case of LRHVARCARGGA, the protein stability index is reported as 0.647 ± 0.095.

In the case of WCRVCNRLVVGV, the protein stability index is reported as 0.5258 ± 0.0015.

With GVGLGGVGFRGG the protein stability index was 0.694 ± 0.098.

TFVVGTRVFSCD showed a protein stability index of 0.631 ± 0.096.

In the case of CAQLVLDNHTGP, the protein stability index is reported as 0.69 ± 0.079.

Work on LWGMSDQGGGFR yielded a protein stability index of 0.611 ± 0.083.

GSIRFVIFLTRL was tested, and the protein stability index was 0.587 ± 0.12.

For NKNNCKLISEKF, the protein stability index was 0.721 ± 0.026.

CAVLGGGVVWGA gave a protein stability index of 0.668 ± 0.028.

ERGRRPAGGGEK was tested, and the protein stability index was 0.719 ± 0.028.

EGSGLVVANAYP gave a protein stability index of 0.667 ± 0.022.

In the case of RKTKKEEKTKRN, the protein stability index is reported as 0.719 ± 0.2.

With GGRRTLFCRFSY the protein stability index was 0.702 ± 0.017.

RGARWRAGIGRG was tested, and the protein stability index was 0.739 ± 0.088.

SPPVPLSPPLSP was tested, and the protein stability index was 0.537 ± 0.023.

ARPASGCFCLFR showed a protein stability index of 0.655 ± 0.071.

Sequence RRREESGEGSEQ has a protein stability index of 0.635 ± 0.073.

LRLGRDLMGEGV gave a protein stability index of 0.661 ± 0.072.

With PPPPPPPPPLFP the protein stability index was 0.703 ± 0.022.

Sequence SSSPLPPPSPPP has a protein stability index of 0.673 ± 0.032.

For GSRSLISLRTGA, the protein stability index was 0.604 ± 0.037.

In the case of AGWGWGARQGAL, the protein stability index is reported as 0.659 ± 0.037.

GCRSFRNYKIGV gave a protein stability index of 0.641 ± 0.018.

TQGLSSYYRHKI showed a protein stability index of 0.686 ± 0.061.

In the case of PTRTAYHRQIPT, the protein stability index is reported as 0.773 ± 0.043.

In the case of GGGRGRAGENTR, the protein stability index is reported as 0.681 ± 0.049.

Work on VCLRVGQGVLWW yielded a protein stability index of 0.727 ± 0.021.

With PTRRPDGQLHPS the protein stability index was 0.6707 ± 0.0027.

Work on RLDVVGVPERTL yielded a protein stability index of 0.762 ± 0.047.

Sequence RSRATIGSQILS has a protein stability index of 0.688 ± 0.01.

EYRRADYCLGVG showed a protein stability index of 0.547 ± 0.011.

GIWVMVSVCSIA was tested, and the protein stability index was 0.537 ± 0.082.

Work on LCLFRSCVHSSA yielded a protein stability index of 0.616 ± 0.049.

Sequence LLPLPSPLPACP has a protein stability index of 0.709 ± 0.02.

Sequence PPLLAPPTPLPQ has a protein stability index of 0.674 ± 0.051.

RNRSNTQAKVIR gave a protein stability index of 0.6725 ± 0.004.

NKNDINRMVQVS showed a protein stability index of 0.6754 ± 0.0062.

STPSMGSMTRLE showed a protein stability index of 0.731 ± 0.041.

Sequence GSCVGASRGWLV has a protein stability index of 0.727 ± 0.068.

Sequence SSLSPTPPPSFP has a protein stability index of 0.84 ± 0.2.

Sequence NKKKKKKRKRVK has a protein stability index of 0.701 ± 0.049.

With PPPSPALPLPPY the protein stability index was 0.712 ± 0.019.

With PDTCRYTAFHFH the protein stability index was 0.586 ± 0.02.

With VGRRTRGHDGVT the protein stability index was 0.659 ± 0.078.

Work on GEGALGLRENLQ yielded a protein stability index of 0.665 ± 0.021.

Work on LPPTSPPPSSPP yielded a protein stability index of 0.7007 ± 0.0041.

Sequence DLPYLYPRCLIS has a protein stability index of 0.72683 ± 0.00028.

Sequence GPGCVFFLACRG has a protein stability index of 0.559 ± 0.024.

NTQPSNRTQRKY gave a protein stability index of 0.669 ± 0.1.

GLHSSNQLGALY gave a protein stability index of 0.677 ± 0.036.

Work on CGCGCPSRVLVS yielded a protein stability index of 0.643 ± 0.061.

VCTRACFLFAYP gave a protein stability index of 0.582 ± 0.015.

In the case of LLQRFTTVPTLL, the protein stability index is reported as 0.616 ± 0.083.

Sequence PPHPHNPRPSTP has a protein stability index of 0.6548 ± 0.0046.

For CCILTHFSSCET, the protein stability index was 0.679 ± 0.011.

With DAMSTRSRLLTR the protein stability index was 0.7109 ± 0.0051.

FVFGVCGGGGIG gave a protein stability index of 0.671 ± 0.11.

With PSKTQKQYKTVA the protein stability index was 0.644 ± 0.094.

With RGHKHSNNVSRR the protein stability index was 0.696 ± 0.019.

GGRGYRIKRKSV gave a protein stability index of 0.806 ± 0.12.

Sequence PSHLWWDCIRKG has a protein stability index of 0.625 ± 0.049.

LLPSPRSSPPPS gave a protein stability index of 0.675 ± 0.091.

Work on KRKENKKNKEKK yielded a protein stability index of 0.669 ± 0.042.

Sequence LPCCYVWFFLSL has a protein stability index of 0.499 ± 0.023.

FFEVFDNYRSLV was tested, and the protein stability index was 0.684 ± 0.051.

Sequence RVDGDFDYPRVV has a protein stability index of 0.82 ± 0.11.

In the case of FHRESAEPSLWS, the protein stability index is reported as 0.697 ± 0.11.

ILPCSRYNILNV gave a protein stability index of 0.659 ± 0.0078.
